According to patent US20200347144A1 (SHANGHAI HYAMAB BIOTECH, published 2020):

Legend:
[1] = biological target: T1, hFc-tagged human 4-1BB extracellular domain protein (4-1BB-hFc) (human, UniProt Q07011 24-186, limits assumed); test: ELISA, coated human 4-1BB-hFc; Ab 0.4 ug/ml
T1 construct: also called immunogen A; 4-1BB^ECD-hFc; not shown: human IgG Fc fragment (hFc) of the pCpC vector
Method: (§1) The purified immunogen A (4-1BB-hFc), monkey 4-1BB-his, and mouse 4-1BB-his obtained in Example 1 [for the preparation method, see step 1 of Example 1, preparation of immunogen A], of which the extracellular domain of monkey-derived 4-1BB protein (purchased from ACRO biosystems), the extracellular domain of mouse 4-1BB protein (purchased from sino biological) or other immune detection point proteins respectively were diluted with PBS to a final concentration of 1.0 μg/mL, then added with […] per well to 96-well ELISA plate. It was sealed with plastic film and incubated at 4° C. overnight. The next day, the plate was washed twice with the plate-washing solution [PBS containing 0.01% (v/v) Tween20] and blocking solution [PBS containing 0.01% (v/v) Tween 20 and 1% (v/v) BSA] was added and blocked at room temperature for 2 hours. The blocking solution was discarded and 100 μl of the purified 4-1BB antibody obtained in Example 2 was added per well. After incubated at 37° C. for 2 hours, the plate was washed 3 times with a plate-washing solution [PBS containing 0.01% (v/v) Tween20]. A secondary antibody (purchased from Sigma) labeled with HRP (horseradish peroxidase) was added, and after incubated at 37° C. for 2 hours, the plate was washed 3 times with a plate-washing solution [PBS containing 0.01% (v/v) Tween20]. 100 μl of TMB substrate was added per well. After incubated for 30 minutes at room temperature, 100 μl of stop buffer (1.0N HCl) was added per well. The A450 nm values were read using an ELISA plate reader (SpectraMax 384plus, Molecular Device).

[2] = biological target: T1, hFc-tagged human 4-1BB extracellular …; test: ELISA, coated human 4-1BB-hFc; Ab 0.0032 ug/ml
Method: as §1

[3] = biological target: T2, human 4-1BB, full length, on transfected cells (human, UniProt Q07011 24-255); test: FACS, CHOK1-h4-1BB cells; Ab 0.4 ug/ml
T2 construct: whole, on cells; also called CHOK1-h4-1BB
T2 sequence (Q07011 24-255): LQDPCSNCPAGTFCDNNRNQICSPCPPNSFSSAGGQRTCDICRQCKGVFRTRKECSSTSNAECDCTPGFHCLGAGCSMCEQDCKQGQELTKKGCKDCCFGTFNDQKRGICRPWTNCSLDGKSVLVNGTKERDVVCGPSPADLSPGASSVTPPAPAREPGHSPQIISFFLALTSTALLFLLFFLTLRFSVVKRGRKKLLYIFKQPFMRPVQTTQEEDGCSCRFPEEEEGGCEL
Outline: (§2)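 CHOK1 stable lines expressing human or monkey 4-1BB were detached with enzyme-free Versene, blocked in 1% goat serum on ice for 30 min and resuspended at 2×10⁶ cells/mL in HBSS with 1% BSA. Purified antibody was bound on ice for 2 h, then cells were fixed in 4% paraformaldehyde and analysed by flow cytometry.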

[4] = biological target: T2, human 4-1BB, full length, on …; test: FACS, CHOK1-h4-1BB cells; Ab 0.0032 ug/ml
Outline: as §2

[5] = biological target: T3, monkey 4-1BB on CHOK1 cells (monkey); test: FACS, CHOK1-c4-1BB cells; Ab 0.00013 ug/ml
T3 construct: whole, on cells; also called CHOK1-c4-1BB
Outline: as §2

[6] = biological target: T1, hFc-tagged human 4-1BB extracellular …; test: ELISA, coated human 4-1BB-hFc; Ab 2 ug/ml
Method: as §1

[7] = biological target: T2, human 4-1BB, full length, on …; test: FACS, CHOK1-h4-1BB cells; Ab 10 ug/ml
Outline: as §2

[8] = biological target: T2, human 4-1BB, full length, on …; test: FACS, CHOK1-h4-1BB cells; Ab 0.00013 ug/ml
Outline: as §2

[9] = biological target: T1, hFc-tagged human 4-1BB extracellular …; test: ELISA: human 4-1BB-hFc coated at 1.0 µg/mL, antibody titrated, HRP secondary antibody, OD450
Method: as §1

[10] = biological target: T2, human 4-1BB, full length, on …; test: FACS, CHOK1-h4-1BB cells; Ab 2 ug/ml
Outline: as §2

[11] = biological target: T3, monkey 4-1BB on CHOK1 cells; test: FACS, CHOK1-c4-1BB cells; Ab 0.4 ug/ml
Outline: as §2

[12] = biological target: T1, hFc-tagged human 4-1BB extracellular …; test: ELISA, coated human 4-1BB-hFc; Ab 0.08 ug/ml
Method: as §1

[13] = biological target: T3, monkey 4-1BB on CHOK1 cells; test: FACS, CHOK1-c4-1BB cells; Ab 0.016 ug/ml
Outline: as §2

[14] = biological target: T1, hFc-tagged human 4-1BB extracellular …; test: ELISA, coated human 4-1BB-hFc; Ab 0.0006 ug/ml
Method: as §1

- OD450 nm [1]: 3.55 OD450 nm
- OD450 nm [2]: 0.52 OD450 nm
- average fluorescence intensity [3]: 492 MFI
- average fluorescence intensity [4]: 28.8 MFI
- average fluorescence intensity [5]: 3.3 MFI
- OD450 nm [6]: 3.61 OD450 nm
- average fluorescence intensity [7]: 532 MFI
- average fluorescence intensity [8]: 4.2 MFI
- EC50 (read off the curve) [9]: ~0.02 mg/L
- average fluorescence intensity [10]: 521 MFI
- average fluorescence intensity [11]: 359 MFI
- OD450 nm [12]: 3.35 OD450 nm
- average fluorescence intensity [13]: 37.3 MFI
- OD450 nm [14]: 0.19 OD450 nm
B1: 15G10D4 (antibody, V domains shown)
VH: QVQLVESGGGVVQPGRSLRLSCAASGFSFSSYAMHWVRQAPGKGLEWVAIIWYDGSNQYYADSVKGRFTISRDNSKNTLYLQMNSLRAEDTAVYYCARVKQWLVSYFDYWGQGTLVTVSS
VL: EIVMTQSPATLSVSPGERATLSCRASQSVSSNLAWYQQKPGQVPRLLIYGASTRATGIPARFSGSGSGTEFSLIISSLQSEDFAVYYCQQYNNWPTFGGGTKVEIK
